Drawing on publication doi:10.1101/2021.05.25.445586, this text covers stoichiometry N for one substance.

Assay [1] addresses mouse WT-RELN (Reelin), full-length (mouse) (UniProt Q60841). Briefly: non-reducing SDS-PAGE with immunoblot. On the technique in general: In western blotting, separated proteins are transferred to a membrane and probed.
The target is the same in assay [2]. The assay is described as follows: non-reducing SDS-PAGE with immunoblot. This is another data set of the same source.

Where two headings read alike, the source gives them in different places.

The stoichiometry N is the number of molecules, sites or subunits per partner or assembly. With “mouse WT-RELN (Reelin), full-length, Q60841 27-3461”, the stoichiometry N in assay [1] and in assay [2] was 2 throughout.
